Results reported in patent US20190330296A1 (Janssen / Centocor, published 2019).
“And” between values parts separate entries of the source, which are not always exact repeats. Identical values can stand only once.

T1: human neuropeptide Y2 receptor (human, UniProt P49146 1-381)
T1 sequence (looked up): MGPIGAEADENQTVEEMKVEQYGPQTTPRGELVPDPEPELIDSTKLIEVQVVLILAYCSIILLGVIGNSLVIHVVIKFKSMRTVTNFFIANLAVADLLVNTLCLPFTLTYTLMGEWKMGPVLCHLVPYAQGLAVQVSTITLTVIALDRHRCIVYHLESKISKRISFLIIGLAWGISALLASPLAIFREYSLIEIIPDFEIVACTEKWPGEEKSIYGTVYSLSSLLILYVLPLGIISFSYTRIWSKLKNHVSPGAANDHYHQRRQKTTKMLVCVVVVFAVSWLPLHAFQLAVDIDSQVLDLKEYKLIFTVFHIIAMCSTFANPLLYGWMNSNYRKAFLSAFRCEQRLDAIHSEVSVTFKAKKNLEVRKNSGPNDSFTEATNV


Experiments:
human GLP-1 receptor = human GLP-1 receptor (human, UniProt P43220 24-463); test: cell-based or functional assay
Sequence of human GLP-1 receptor (P43220 24-463): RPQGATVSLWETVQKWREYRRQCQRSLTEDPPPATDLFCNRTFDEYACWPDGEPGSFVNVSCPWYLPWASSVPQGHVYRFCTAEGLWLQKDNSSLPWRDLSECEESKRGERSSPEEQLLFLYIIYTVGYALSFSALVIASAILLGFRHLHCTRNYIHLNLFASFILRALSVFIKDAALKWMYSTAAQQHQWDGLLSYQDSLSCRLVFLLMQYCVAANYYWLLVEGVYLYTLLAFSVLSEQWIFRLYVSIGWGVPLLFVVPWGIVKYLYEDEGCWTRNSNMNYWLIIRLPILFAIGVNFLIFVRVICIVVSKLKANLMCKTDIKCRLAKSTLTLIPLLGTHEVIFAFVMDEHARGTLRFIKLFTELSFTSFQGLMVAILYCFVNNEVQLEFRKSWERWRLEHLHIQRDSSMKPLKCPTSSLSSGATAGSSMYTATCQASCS

[1] = target: T1, human neuropeptide Y2 receptor; test: cell-based or functional assay

| Binder | Human GLP1R EC50 (human GLP-1 receptor) | Human Y2R EC50 [1] |
| --- | --- | --- |
| GLP-1 fusion peptide GF41 (SEQ ID NO:153) (Fc fusion) HGEGTFTSDVSSYLEEQAAKEFIAWLVKGGGASGGGGSGGGGSGGGGSGGGGSCPPCPAPEAAGGPSVFLFPPKPKDTLMISRTPEVTCVVVDVSQEDPEVQFNWYVDGVEVHNAKTKPREEQFNSTYRVVSVLTVLHQDWLNGKEYKCKVSNKGLPSSIEKTISKAKGQPREPQVYTLPPSQEEMTKNQVSLTCLVKGFYPSDIAVEWESNGQPENNYKTTPPVLDSDGSFFLYSRLTVDKSRWQEGNVFSCSVMHEALHNHYTQKSLSLSLGKASGSAPAPAPEEEPCA | 0.049 nM |  |
| GLP-1 fusion peptide GF54 (SEQ ID NO:166) (Fc fusion) HGEGTFTSDVSSYLEEQAAKEFIAWLVKGGGASAPAPAPAPAPAPAPAPAPAPGSCPPCPAPEAAGGPSVFLFPPKPKDTLMISRTPEVTCVVVDVSQEDPEVQFNWYVDGVEVHNAKTKPREEQFNSTYRVVSVLTVLHQDWLNGKEYKCKVSNKGLPSSIEKTISKAKGQPREPQVYTLPPSQEEMTKNQVSLTCLVKGFYPSDIAVEWESNGQPENNYKTTPPVLDSDGSFFLYSRLTVDKSRWQEGNVFSCSVMHEALHNHYTQKSLSLSLGKASGSAPAPAPEEEPCA | 0.035 nM and 0.053 nM |  |
| GLP-1 fusion peptide coupled cyclic PYY peptide conjugate SEQ ID NO:239 (Fc fusion, [cyclo-(G2-COCH2-C30), K(AcBr)11, N-Me-R35]-PYY2-36; Br displaced on conjugation to the linker Cys; C-terminal amide; Cys of the second linker peptide thioether-linked to the Lys11 side chain of the cyclic PYY peptide) HGEGTFTSDVSSYLEEQAAKEFIAWLVKGGGASAPAPAPAPAPAPAPAPAPAPGSCPPCPAPEAAGGPSVFLFPPKPKDTLMISRTPEVTCVVVDVSQEDPEVQFNWYVDGVEVHNAKTKPREEQFNSTYRVVSVLTVLHQDWLNGKEYKCKVSNKGLPSSIEKTISKAKGQPREPQVYTLPPSQEEMTKNQVSLTCLVKGFYPSDIAVEWESNGQPENNYKTTPPVLDSDGSFFLYSRLTVDKSRWQEGNVFSCSVMHEALHNHYTQKSLSLSLGKASGSAPAPAPEEEPCA peptide: GISPEAPGEKASPEELNRYYASLRHYLNCVTRQRY | 0.042 nM | 0.006 nM |
| GLP-1 fusion peptide GF40 (SEQ ID NO:152) (Fc fusion) HGEGTFTSDVSSYLEEQAAKEFIAWLVKGGGASGGGGSGGGGSCPPCPAPEAAGGPSVFLFPPKPKDTLMISRTPEVTCVVVDVSQEDPEVQFNWYVDGVEVHNAKTKPREEQFNSTYRVVSVLTVLHQDWLNGKEYKCKVSNKGLPSSIEKTISKAKGQPREPQVYTLPPSQEEMTKNQVSLTCLVKGFYPSDIAVEWESNGQPENNYKTTPPVLDSDGSFFLYSRLTVDKSRWQEGNVFSCSVMHEALHNHYTQKSLSLSLGKASGSAPAPAPEEEPCA | 0.207 nM |  |
| GLP-1 fusion peptide coupled cyclic PYY peptide conjugate SEQ ID NO:249 (Fc fusion, [cyclo-(G2-E30), S4, K(AcBr)11, N-Me-R35]-PYY2-36; Br displaced on conjugation to the linker Cys; C-terminal amide; Cys of the second linker peptide thioether-linked to the Lys11 side chain of the cyclic PYY peptide) HGEGTFTSDVSSYLEEQAAKEFIAWLVKGGGASGGGGSGGGGSCPPCPAPEAAGGPSVFLFPPKPKDTLMISRTPEVTCVVVDVSQEDPEVQFNWYVDGVEVHNAKTKPREEQFNSTYRVVSVLTVLHQDWLNGKEYKCKVSNKGLPSSIEKTISKAKGQPREPQVYTLPPSQEEMTKNQVSLTCLVKGFYPSDIAVEWESNGQPENNYKTTPPVLDSDGSFFLYSRLTVDKSRWQEGNVFSCSVMHEALHNHYTQKSLSLSLGKASGSAPAPAPEEEPCA peptide: not shown | 0.148 nM | 0.143 nM |
| GLP-1 fusion peptide coupled cyclic PYY peptide conjugate SEQ ID NO:248 (Fc fusion, [cyclo-(G2-COCH2-C30), K(AcBr)11, N-Me-R35]-PYY2-36; Br displaced on conjugation to the linker Cys; C-terminal amide; Cys of the second linker peptide thioether-linked to the Lys11 side chain of the cyclic PYY peptide) HGEGTFTSDVSSYLEEQAAKEFIAWLVKGGGASGGGGSGGGGSCPPCPAPEAAGGPSVFLFPPKPKDTLMISRTPEVTCVVVDVSQEDPEVQFNWYVDGVEVHNAKTKPREEQFNSTYRVVSVLTVLHQDWLNGKEYKCKVSNKGLPSSIEKTISKAKGQPREPQVYTLPPSQEEMTKNQVSLTCLVKGFYPSDIAVEWESNGQPENNYKTTPPVLDSDGSFFLYSRLTVDKSRWQEGNVFSCSVMHEALHNHYTQKSLSLSLGKASGSAPAPAPEEEPCA peptide: GISPEAPGEKASPEELNRYYASLRHYLNCVTRQRY | 0.264 nM | 0.018 nM |
| GLP-1 fusion peptide coupled cyclic PYY peptide conjugate SEQ ID NO:250 (Fc fusion, [cyclo-(G2-E30), S4, K(AcBr)11, psi-(R35,Y36)]-PYY2-36; Br displaced on conjugation to the linker Cys; C-terminal amide; Cys of the second linker peptide thioether-linked to the Lys11 side chain of the cyclic PYY peptide) HGEGTFTSDVSSYLEEQAAKEFIAWLVKGGGASGGGGSGGGGSCPPCPAPEAAGGPSVFLFPPKPKDTLMISRTPEVTCVVVDVSQEDPEVQFNWYVDGVEVHNAKTKPREEQFNSTYRVVSVLTVLHQDWLNGKEYKCKVSNKGLPSSIEKTISKAKGQPREPQVYTLPPSQEEMTKNQVSLTCLVKGFYPSDIAVEWESNGQPENNYKTTPPVLDSDGSFFLYSRLTVDKSRWQEGNVFSCSVMHEALHNHYTQKSLSLSLGKASGSAPAPAPEEEPCA peptide: GISPEAPGEKASPEELNRYYASLRHYLNEVTRQRY | 0.213 nM | 0.01 nM |
| GLP-1 fusion peptide GF27 (SEQ ID NO:139) (Fc fusion) HGEGTFTSDVSSYLEEQAAKEFIAWLVKGGGAPAPAPAPAPAPAPAPAPAPAPAPAGPPCPPCPAPEAAGGPSVFLFPPKPKDTLMISRTPEVTCVVVDVSQEDPEVQFNWYVDGVEVHNAKTKPREEQFNSTYRVVSVLTVLHQDWLNGKEYKCKVSNKGLPSSIEKTISKAKGQPREPQVYTLPPSQEEMTKNQVSLTCLVKGFYPSDIAVEWESNGQPENNYKTTPPVLDSDGSFFLYSRLTVDKSRWQEGNVFSCSVMHEALHNHYTQKSLSLSLGAPAPAPAPAPAPCPEEP | 0.054 nM |  |
